Results as given in patent US20230144876A1 (UNIVERSITY OF KITAKYUSHU, published 2023).

Target: T1, MHC-1 (MHC class I molecules) on murine dendritic cell line DC2.4 cells (mouse, UniProt P01887 21-119; P01901 22-369)
T1 construct: whole, on cells; also called H-2Kb
T1 sequence (MHC heavy, looked up): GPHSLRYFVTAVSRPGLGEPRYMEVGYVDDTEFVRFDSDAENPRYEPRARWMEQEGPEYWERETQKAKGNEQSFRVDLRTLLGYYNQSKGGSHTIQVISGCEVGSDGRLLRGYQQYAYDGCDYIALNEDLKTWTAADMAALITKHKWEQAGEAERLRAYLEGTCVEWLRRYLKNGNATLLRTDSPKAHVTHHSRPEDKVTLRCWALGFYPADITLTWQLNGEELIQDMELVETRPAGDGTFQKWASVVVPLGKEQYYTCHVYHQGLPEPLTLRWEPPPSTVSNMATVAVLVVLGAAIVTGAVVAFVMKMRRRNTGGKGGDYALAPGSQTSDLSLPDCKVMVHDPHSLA
T1 sequence (b2m, looked up): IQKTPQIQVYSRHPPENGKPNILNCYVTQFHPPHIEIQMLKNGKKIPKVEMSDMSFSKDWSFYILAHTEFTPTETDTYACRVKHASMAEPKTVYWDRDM
Test: competitive inhibition of OVA peptide 1 binding to MHC-1 on DC2.4 cells, flow cytometry
Experimental: Murine dendritic cell line, DC2.4 cells, were detached from a dish, and suspended in 1.5 mL tubes at a concentration of 1.5×10⁵ cells per […] of PBS.

B1: C-TRP2-9 (cysteine added to the N-terminus of residues 180 to 188 of mTRP2) (peptide)
peptide: CSVYDFFVWL
notes: 10-mer; N-terminal Cys plus mTRP2 180-188; Free peptide in the assay
- binding result: no binding (tested: 2.5 µg/mL)
